Experimental data taken from publication PMC10986471 (Microbiology Spectrum, 2024).

Columns and labels:
Experiment in all cases: ELISA
Conditions in all cases: both partners purified
[1] = molecular target: RBD of the Alpha variant (B.1.1.7 lineage) (SARS-CoV-2 Alpha (B.1.1.7), N501Y)
[2] = molecular target: RBD of the Delta variant (B.1.617.2 lineage) (SARS-CoV-2 Delta (B.1.617.2), L452R | T478K)
[3] = molecular target: RBD^B.1 (receptor-binding domain of Spike^B.1) (SARS-CoV-2 B.1 (RBD as Wuhan-Hu-1), UniProt P0DTC2)
[4] = molecular target: RBD of the Gamma variant (P.1 lineage) (SARS-CoV-2 Gamma (P.1), K417T | E484K | N501Y)
[5] = molecular target: RBD of the Beta variant (B.1.351 lineage) (SARS-CoV-2 Beta (B.1.351), K417N | E484K | N501Y)

Row | Binder | Kd [1] | Kd [2] | Kd [3] | Kd [4] | Kd [5]
1 | CSW1-1805 (antibody, V domains shown, copies: 2 + 2) VH: EVQLQQSGPELVKPGASLRISCRTSEYTFTENTMYWVKQSHGKSLEWIGGINPNNGDTIYNQQFKGKATLTVDKSSSTAYMELRSLTSEDSAVYYCARDSPVVPGDYWGQGTTLTVSS VL: DIVMTQSPSSLPVSVGEKVTMRCKSSQSLLYSSNQKNYLAWYQQKSGQSPKLMIYWASTRECGVPDRFTGSGSGTDFTLTISNVKAEDLAVYYCQQYYRYPLTFGVGTKLELK | 0.452 nM | 0.262 nM | 0.453 nM | 0.494 nM | 0.482 nM
2 | CSW2-1353 (antibody, V domains shown, copies: 2 + 2) VH: EVQLVESGGGLVQPKGSLKLSCAASGFNFNTYAMNWVRQAPGKGLEWVARIRSKSENYVIYYADSVKDRFTISRDDSQNMLYLQMNNLKTEDTAMYYCVMSYYGNYWFAYWGQGTLVTVSA VL: DVVVTQTPLSLPVSLGDQASISCRSSQSLVHNNGNTYLHWYLQKPGQSPKLLIYKVSNRFSGVPDRFSGSGSGTDFTLKISRVEAEDLGVYFCSQSTHIPWTFGGGTKLEIK | 0.152 nM | 0.114 nM | 0.118 nM |  | 
